Test results reported in US8357523B2, “Beta-glucosidase variant enzymes and related polynucleotides” (Codexis, Inc., priority 2009, dated 2013).

Assay: High throughput cellobiose assay: fold improvement in cellobiase activity of CelA variants over a control enzyme (Tables 2A-2D, 3, 5, 6, 7)
Type: biochemical
Settings: 3.3 g/l cellobiose, 65° C. and pH 5 (incubation overnight); relative to Control #5, Variant No. 366 (SEQ ID NO: 9)

| Molecule | Fold Improvement over Control Variant |
| --- | --- |
| 413 (protein, truncated; signal peptide F-10T) SARITQEGAAPAPMLHPEKWPRPATQRLIDPAVEKRVDALLKQLSVEEKVGQVIQGDIGTITPEDLRKYPLGSILAGGDSGPNGDDRAPPKEWLDLADAFYRVSLEKRPGHTPIPVLFGIDAVHGHNNIGSATIFPHNIALGMTRDTELLRRIGEVTAEEMAATGIDWTFAPALSVPRDDRWGRTYEGFSEDPEIVASYSAAIVEGFQGKYGSKDFMAPGRAVACAKHFLADGGTDQGRDQGDARISEDELIRIHNAGYPPAIDAGVLTVMASFSSWQGIKHHGHKQLLTDVLKGQMGFNGFIVGDWNAHDQVPGCTKFNCPTSLIAGLDMYMAADSWKQLYENTLAQVKDGTIPMARLDDAVRRILRVKVLAGLFEKPAPKDRPGLPGLETLGSPEHRAVGREAVRKSLVLLKNDKGTLPLSPKARVLVAGDGADNIGKQSGGWTISWQGTGNRNDEFPGATSILGGIRDAVADAGGSVEFDVAGQYKTKPDVAIVVFGENPYAEFRGDVETLEYQPDQKQDLTLLKKLKDQGIPVVAVFLSGRPMWVNPELNASDAFVAAWLPGTEGGGVADVLFTDKAGKVQYDFAGKLSYSWPRTAAQTTVNRGDADYNPLFAYGYGLTYKDKSKVGTLPEESGVPAEARQNAGIYFRAGALRLPGRFL | +++ (+++ = 2.1 to 3.0 fold improvement over control Variant No. 366) |
| 416 (protein, truncated; signal peptide F-10T) SAAITQEGAAPAAMLHPEKWPRPATQRLIDPAVEKRVDALLKQLSVEEKVGQVIQGDIGTITPEDLRKYPLGSILAGGDSGPNGDDRAPPKEWLDLADAFYRVSLEKRDGHTPIPVLFGIDAVHGHNNIGSATIFPHNIALGMTRDPELLRRIGEVTAEEMAATGIDWTFAPALSVPRDDRWGRTYEGFSEDPEIVASYSAAIVEGFQGKYGSKDFMAPGRAVACAKHFLADGGTDQGRDQGDARISEDELIRIHNAGYPPAIDAGVLTVMASFSSWQGIKHHGHKQLLTDVLKGQMGFNGFIVGDWNAHDQVPGCTKFNCPTSLIAGLDMYMAADSWKQLYENTLAQVKEGTIPMARLDDAVRRILRVKVLAGLFEKPAPKDRPGLPGLETLGSPEHRAVGREAVRKSLVLLKNDKGTLPLSPKARVLVAGDGADNIGKQSGGWTISWQGTGNRNDEFPGATSILGGIRDAVADAGGSVEFDVAGQYKTKPDVAIVVFGEEPYAEFRGDVETLEYQPDQKQDLTLLKKLKDQGIPVVAVFLSGRPMWVNPELNASDAFVAAWLPGTEGGGVADVLFTDKAGKVQYDFAGKLSYSWPRTAAQTTVNRGDADYNPLFAYGYGLTYKDKSKVGTLPEESGVPAEARQNAGIYFRAGALRLPGRFL | ++ (++ = 1.1 to 2.0 fold improvement over control Variant No. 366) |
| 417 (protein, truncated; signal peptide F-10T) SAAITQEGAAPAAMLHPEKWPRPATQRLIDPAVEKRVDALLKQLSVEEKVGQVIQGDIGTITPEDLRKYPLGSILAGGDSGPNGDDRAPPKEWLDLADAFYRVSLEKRPGHTPIPVLFGIDAVHGHNNIGSATIFPHNIALGMTRDPELLRRIGEVTAEEMAATGIDWTFAPALSVPRDDRWGRTYEGFSEDPEIVASYSAAIVEGFQGKYGSKDFMAPGRAVACAKHFLADGGTDQGRDQGDARISEDELIRIHNAGYPPAIDAGVLTVMASFSSWQGIKHHGHKQLLTDVLKGQMGFNGFIVGDWNAHDQVPGCTKFNCPTSLIAGLDMYMAADSWKQLYENTLAQVKDGTIPMARLDDAVRRILRVKVLAGLFEKPAPKDRPGLPGLETLGSPEHRAVGREAVRKSLVLLKNDKGTLPLSPKARVLVAGDGADNIGKQSGGWTISWQGTGNRNDEFPGATSILGGIRDAVADAGGSVEFDVAGQYKTKPDVAIVVFGEEPYAEFQGDVETLEYQPDQKQDLTLLKKLKDQGIPVVAVFLSGRPMWVNPELNASDAFVAAWLPGTEGGGVADVLFTDKAGKVQHDFAGKLSYSWPRTAAQTTVNRGDADYNPLFAYGYGLTYKDKSKVGTLPEESGVPAEARQNAGIYFRAGALRLPGRFL | ++ (++ = 1.1 to 2.0 fold improvement over control Variant No. 366) |
| 415 (protein, truncated; signal peptide F-10T) SAAITQEGAAPAPMLHPEKWPRPATQRLIDPAVEKRVDALLKQLSVEEKVGQVIQGDIGTITPEDLRKYPLGSILAGGDSGPNGDDRAPPKEWLDLADAFYRVSLEKRPGHTPIPVLFGIDAVHGHNHIGSATIFPHNIALGMTRDPELLRRIGEVTAEEMAATGIDWTFAPALSVPRDDRWGRTYEGFSEDPEIVASYSAAIVEGFQGKYGSKDFMAPGRAVACAKHFLADGGTDQGRDQGDARISEDELIRIHNAGYPPAIDAGVLTVMASFSSWQGIKHHGHKQLLTDVLKGQMGFNGFIVGDWNAHDQVPGCTKFNCPTSLIAGLDMYMAADSWKQLYENTLAQVKDGTIPMARLDDAVRRILRVKVLAGLFEKPAPKDRPGLPGLETLGSPEHRAVGREAVRKSLVLLKNDKGTLPLSPKARVLVAGDGADNIGKQSGGWTISWQGTGNRNDEFPGATSILGGIRDAVADAGGSVEFDVAGQYKTKPDVAIVVFGENPYAEFQGDVETLEYQPDQKQDLTLLKKLKDQGIPVVAVFLSGRPMWVNPELNASDAFVAAWLPGTEGGGVADVLFTDKAGKVQHDFAGKLSYSWPRTAAQTTVNRGDADYNPLFAYGYGLTYKDKSKVGTLPEESGVPAEARQNAGIYFRAGALRLPGRFL | ++ (++ = 1.1 to 2.0 fold improvement over control Variant No. 366) |
| 414 (protein, truncated; signal peptide F-10T) SARITQEGAAPAAMLHPEKWPRPATQRLIDPAVEKRVDALLKQLSVEEKVGQVIQGDIGTITPEDLRKYPLGSILAGGDSGPNGDDRAPPKEWLDLADAFYRVSLEKRPGHTPIPVLFGIDAVHGHNNIGSATIFPHNIALGMTRDPELLRRIGEVTAEEMAATGIDWTFAPALSVVRDDRWGRTYEGFSEDPEIVASYSAAYVEGFQGKYGSKDFMAPGRAVACAKHFLADGGTDQGRDQGDARISEDELIRIHNAGYPPAIDAGVLTVMASFSSWQGIKHHGHKQLLTDVLKGQMGFNGFIVGDWNAHDQVPGCTKFNCPTSLIAGLDMYMAADSWKQLYENTLAQVKDGTIPMARLDDAVRRILRVKVLAGLFEKPAPKDRPGLPGLETLGSPEHRTVGREAVRKSLVLLKNDKGTLPLSPKARVLVAGDGADNIGKQSGGWTISWQGTGNRNDEFPGATSILGGIRDAVADAGGSVEFDVAGQYKTKPDVAIVVFGENPYAEFRGDVETLEYQPDQKQDLSLLKKLKDQGIPVVAVFLSGRPMWVNPELNASDAFVAAWLPGTEGGGVADVLFTDKAGKVQHDFAGKLSYSWPRTAAQTTVNRGDADYNPLFAYGYGLTYKDKSKVGTLPEESGVPAEARQNAGIYFRAGALRLPGRFL | ++ (++ = 1.1 to 2.0 fold improvement over control Variant No. 366) |
| 418 (protein, truncated; signal peptide F-10T, N-5H) SARITQEGAAPAPMLHPEKWPRPATQRLIDPAVEKRVDALLKQLSVEEKVGQVIQGDIGTITPEDLRKYPLGSILAGGDSGPNGDDRAPPKEWLDLADAFYRVSLEKRPGHTPIPVLFGIDAVHGHNNIGSATIFPHNIALGMTRDPELLRRIGEVTAEEMAATGIDWTFAPALSVVRDDRWGRTYEGFSEDPEIVASYSAAYVEGFQGKYGSKDFMAPGRAVACAKHFLADGGTDQGRDQGDARISEDELIRIHNAGYPPAIDAGVLTVMASFSSWQGIKHHGHKQLLTDVLKGQMGFNGFIVGDWNAHDQVPGCTKFNCPTSLIAGLDMYMAADSWKQLYENTLAQVKDGTIPMARLDDAVRRILRVKVLAGLFEKPAPKDRPGLPGLETLGSPEHRTVGREAVRKSLVLLKNDKGTLPLSPKARVLVAGDGADNIGKQSGGWTISWQGTGNRNDEFPGATSILGGIRDAVADAGGSVEFDVAGQYKTKPDVAIVVFGEEPYAEFRGDVETLEYQPDQKQDLTLLKKLKDQGIPVVAVFLSGRPMWVNPELNASDAFVAAWLPGTEGGGVADVLFTDKAGKVQHDFAGKLSYSWPRTAAQTTVNRGDADYNPLFAYGYGLTYKDKSKVGTLPEESGVPAEARQNAGIYFRAGALRLPGRFL | ++ (++ = 1.1 to 2.0 fold improvement over control Variant No. 366) |
